T1: mouse FcγRIII (mouse, UniProt P08508 31-215)
T1 construct: also called mFcγRIII; mFcgRIII
T1 chain: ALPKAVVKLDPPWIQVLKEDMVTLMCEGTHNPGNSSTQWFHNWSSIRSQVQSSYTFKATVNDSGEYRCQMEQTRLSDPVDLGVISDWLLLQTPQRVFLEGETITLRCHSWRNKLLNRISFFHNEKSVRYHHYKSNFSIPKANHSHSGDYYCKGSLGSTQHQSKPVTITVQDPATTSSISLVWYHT

T2: mouse FcγRII (mouse, UniProt P08101 30-210)
T2 construct: also called mFcγRII; mFcgRII
T2 sequence: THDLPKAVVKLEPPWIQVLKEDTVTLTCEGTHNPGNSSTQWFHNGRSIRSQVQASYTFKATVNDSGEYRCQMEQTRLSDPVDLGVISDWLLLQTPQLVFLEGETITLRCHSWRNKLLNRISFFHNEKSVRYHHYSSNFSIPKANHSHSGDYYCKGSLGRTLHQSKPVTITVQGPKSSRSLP

T3: mouse FcγRIII extracellular domain with C-terminal His tag (mouse, UniProt P08508 31-215)
T3 construct: Made on the basis of NCBI NP-034318.2; also called mFcγRIII; mFcgRIII
T3 chain: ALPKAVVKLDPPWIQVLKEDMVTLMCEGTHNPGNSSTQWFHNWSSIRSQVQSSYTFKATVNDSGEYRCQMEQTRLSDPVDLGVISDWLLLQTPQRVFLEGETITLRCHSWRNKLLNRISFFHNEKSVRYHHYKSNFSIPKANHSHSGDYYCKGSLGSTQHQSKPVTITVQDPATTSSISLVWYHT

T4: mouse FcγRII extracellular domain with C-terminal His tag (mouse, UniProt P08101 30-210)
T4 construct: Made on the basis of NCBI NP-034317.1; also called mFcγRII; mFcgRII
T4 sequence: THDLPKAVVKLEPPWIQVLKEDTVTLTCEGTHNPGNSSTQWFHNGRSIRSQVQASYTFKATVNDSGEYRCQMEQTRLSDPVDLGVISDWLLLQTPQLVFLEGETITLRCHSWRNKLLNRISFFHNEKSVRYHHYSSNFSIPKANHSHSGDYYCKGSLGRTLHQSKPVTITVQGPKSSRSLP


Experiments:
[1] = target: T1, mouse FcγRIII; experiment: SPR Biacore 4000, KD ratio
Experimental: (§1) Each altered antibody was analyzed for its interaction with each Fcγ receptor prepared above using Biacore T100 (GE Healthcare Japan Corp.), Biacore T200 (GE Healthcare Japan Corp.), Biacore A100, or Biacore 4000. The running buffer used was HBS-EP+ (GE Healthcare Japan Corp.). The assay temperature was set to 25° C. The sensor chips used were chips prepared by immobilizing Protein L (ACTIGEN or BioVision) onto Series S Sensor Chip CM5 (GE Healthcare Japan Corp.) or Series S Sensor Chip CM4 (GE Healthcare Japan Corp.) by the amine coupling method.
(§2) In order to calculate the KD value of each altered antibody for FcγR, kinetic analysis was conducted according to the following method: first, the antibody of interest was captured onto any of these chips and allowed to interact with mFcγR diluted with a running buffer. For the obtained sensorgram, the assay results were globally fit into the 1:1 Langmuir binding model using Biacore Evaluation Software to calculate an association rate constant ka (L/mol/s) and a dissociation rate constant kd (1/s). From these values, the dissociation constant KD (mol/L) was calculated.

[2] = target: T2, mouse FcγRII; experiment: SPR Biacore 4000, KD ratio
Experimental: as §1, §2

[3] = target: T3, mouse FcγRIII extracellular domain with …; experiment: SPR Biacore T200
Experimental: as §1, §2

[4] = target: T4, mouse FcγRII extracellular domain with …; experiment: SPR Biacore T200
Experimental: as §1, §2

| relative mFcγRIII-binding activity (mIgG1 = 1) [1] [fold] | relative mFcγRII-binding activity (mIgG1 = 1) [2] [fold] | relative mFcγRIII-binding activity (mIgG1 = 1) [3] | relative mFcγRII-binding activity (mIgG1 = 1) [4] | Binder |
| --- | --- | --- | --- | --- |
| 1.47 | 2.72 | – | – | MB002 (antibody, mouse IgG1, kappa, copies: 2 + 2) heavy: QVQLQESGPGLVKPSETLSLTCAVSGHSISHDHAWSWVRQPPGEGLEWIGFISYSGITNYNPSLQGRVTISRDNSKNTLYLQMNSLRAEDTAVYYCARSLARTTAMDYWGEGTLVTVSSAKTTPPSVYPLAPGSAAQTNSMVTLGCLVKGYFPEPVTVTWNSGSLSSGVHTFPAVLQSDLYTLSSSVTVPSSTWPSETVTCNVAHPASSTKVDKKIVPRDCGCKPCICDVPEVSSVFIFPPKPKDVLTITLTPKVTCVVVDISKDDPEVQFSWFVDDVEVHTAQTQPREEQFNSTFRSVSELPIMHQDWLNGKEFKCRVNSAAFPAPIEKTISKTKGRPKAPQVYTIPPPKEQMAKDKVSLTCMITDFFPEDITVEWQWNGQPAENYKNTQPIMDTDGSYFVYSKLNVQKSNWEAGNTFTCSVLHEGLHNHHTEKSLSHSPGK light: not shown |
| – | – | 0.4 | 1.2 | H237-MB517/MRAL-k0 (antibody, mouse IgG1, kappa, copies: 2 + 2) heavy: QVQLQESGPGLVKPSETLSLTCAVSGHSISHDHAWSWVRQPPGEGLEWIGFISYSGITNYNPSLQGRVTISRDNSKNTLYLQMNSLRAEDTAVYYCARSLARTTAMDYWGEGTLVTVSSAKTTPPSVYPLAPGSAAQTNSMVTLGCLVKGYFPEPVTVTWNSGSLSSGVHTFPAVLQSDLYTLSSSVTVPSSTWPSETVTCNVAHPASSTKVDKKIVPRDCGCKPCICEAYEVEWVFIFPPKPKDVLTITLTPKVTCVVVDISKDDPEVQFSWFVDDVEVHTAQTQPREEQFNSTFRSVSELPIMHQDWLNGKEFKCRVNSAAFPAPIEKTISKTKGRPKAPQVYTIPPPKEQMAKDKVSLTCMITDFFPEDITVEWQWNGQPAENYKNTQPIMDTDGSYFVYSKLNVQKSNWEAGNTFTCSVLHEGLHNHHTEKSLSHSPGK light: not shown |
| – | – | 0.2 | 4.5 | H237-MB514/MRAL-k0 (antibody, mouse IgG1, kappa, copies: 2 + 2) heavy: QVQLQESGPGLVKPSETLSLTCAVSGHSISHDHAWSWVRQPPGEGLEWIGFISYSGITNYNPSLQGRVTISRDNSKNTLYLQMNSLRAEDTAVYYCARSLARTTAMDYWGEGTLVTVSSAKTTPPSVYPLAPGSAAQTNSMVTLGCLVKGYFPEPVTVTWNSGSLSSGVHTFPAVLQSDLYTLSSSVTVPSSTWPSETVTCNVAHPASSTKVDKKIVPRDCGCKPCICIPAEVEMVFIFPPKPKDVLTITLTPKVTCVVVDISKDDPEVQFSWFVDDVEVHTAQTQPREEQFNSTFRSVSELPIMHQDWLNGKEFKCRVNSAAFPAPIEKTISKTKGRPKAPQVYTIPPPKEQMAKDKVSLTCMITDFFPEDITVEWQWNGQPAENYKNTQPIMDTDGSYFVYSKLNVQKSNWEAGNTFTCSVLHEGLHNHHTEKSLSHSPGK light: not shown |
| – | – | 0.4 | 1.2 | H237-MB518/MRAL-k0 (antibody, mouse IgG1, kappa, copies: 2 + 2) heavy: QVQLQESGPGLVKPSETLSLTCAVSGHSISHDHAWSWVRQPPGEGLEWIGFISYSGITNYNPSLQGRVTISRDNSKNTLYLQMNSLRAEDTAVYYCARSLARTTAMDYWGEGTLVTVSSAKTTPPSVYPLAPGSAAQTNSMVTLGCLVKGYFPEPVTVTWNSGSLSSGVHTFPAVLQSDLYTLSSSVTVPSSTWPSETVTCNVAHPASSTKVDKKIVPRDCGCKPCICEDYEVEWVFIFPPKPKDVLTITLTPKVTCVVVDISKDDPEVQFSWFVDDVEVHTAQTQPREEQFNSTFRSVSELPIMHQDWLNGKEFKCRVNSAAFPAPIEKTISKTKGRPKAPQVYTIPPPKEQMAKDKVSLTCMITDFFPEDITVEWQWNGQPAENYKNTQPIMDTDGSYFVYSKLNVQKSNWEAGNTFTCSVLHEGLHNHHTEKSLSHSPGK light: not shown |
| – | – | 0.3 | 2.8 | H237-MB525/MRAL-k0 (antibody, mouse IgG1, kappa, copies: 2 + 2) heavy: QVQLQESGPGLVKPSETLSLTCAVSGHSISHDHAWSWVRQPPGEGLEWIGFISYSGITNYNPSLQGRVTISRDNSKNTLYLQMNSLRAEDTAVYYCARSLARTTAMDYWGEGTLVTVSSAKTTPPSVYPLAPGSAAQTNSMVTLGCLVKGYFPEPVTVTWNSGSLSSGVHTFPAVLQSDLYTLSSSVTVPSSTWPSETVTCNVAHPASSTKVDKKIVPRDCGCKPCICQPNEVEWVFIFPPKPKDVLTITLTPKVTCVVVDISKDDPEVQFSWFVDDVEVHTAQTQPREEQFNSTFRSVSELPIMHQDWLNGKEFKCRVNSAAFPAPIEKTISKTKGRPKAPQVYTIPPPKEQMAKDKVSLTCMITDFFPEDITVEWQWNGQPAENYKNTQPIMDTDGSYFVYSKLNVQKSNWEAGNTFTCSVLHEGLHNHHTEKSLSHSPGK light: not shown |
| – | – | 0.1 | 0.5 | H237-MB523/MRAL-k0 (antibody, mouse IgG1, kappa, copies: 2 + 2) heavy: QVQLQESGPGLVKPSETLSLTCAVSGHSISHDHAWSWVRQPPGEGLEWIGFISYSGITNYNPSLQGRVTISRDNSKNTLYLQMNSLRAEDTAVYYCARSLARTTAMDYWGEGTLVTVSSAKTTPPSVYPLAPGSAAQTNSMVTLGCLVKGYFPEPVTVTWNSGSLSSGVHTFPAVLQSDLYTLSSSVTVPSSTWPSETVTCNVAHPASSTKVDKKIVPRDCGCKPCICIPAEVEWVFIFPPKPKDVLTITLTPKVTCVVVDISKDDPEVQFSWFVDDVEVHTAQTQPREEQFNSTFRSVSELPIMHQDWLNGKEFKCRVNSAAFPAPIEKTISKTKGRPKAPQVYTIPPPKEQMAKDKVSLTCMITDFFPEDITVEWQWNGQPAENYKNTQPIMDTDGSYFVYSKLNVQKSNWEAGNTFTCSVLHEGLHNHHTEKSLSHSPGK light: not shown |
| – | – | 0.7 | 1.6 | H237-MB521/MRAL-k0 (antibody, mouse IgG1, kappa, copies: 2 + 2) heavy: QVQLQESGPGLVKPSETLSLTCAVSGHSISHDHAWSWVRQPPGEGLEWIGFISYSGITNYNPSLQGRVTISRDNSKNTLYLQMNSLRAEDTAVYYCARSLARTTAMDYWGEGTLVTVSSAKTTPPSVYPLAPGSAAQTNSMVTLGCLVKGYFPEPVTVTWNSGSLSSGVHTFPAVLQSDLYTLSSSVTVPSSTWPSETVTCNVAHPASSTKVDKKIVPRDCGCKPCICEVYEVEWVFIFPPKPKDVLTITLTPKVTCVVVDISKDDPEVQFSWFVDDVEVHTAQTQPREEQFNSTFRSVSELPIMHQDWLNGKEFKCRVNSAAFPAPIEKTISKTKGRPKAPQVYTIPPPKEQMAKDKVSLTCMITDFFPEDITVEWQWNGQPAENYKNTQPIMDTDGSYFVYSKLNVQKSNWEAGNTFTCSVLHEGLHNHHTEKSLSHSPGK light: not shown |
| – | – | 0.1 | 1.5 | H237-MB522/MRAL-k0 (antibody, mouse IgG1, kappa, copies: 2 + 2) heavy: QVQLQESGPGLVKPSETLSLTCAVSGHSISHDHAWSWVRQPPGEGLEWIGFISYSGITNYNPSLQGRVTISRDNSKNTLYLQMNSLRAEDTAVYYCARSLARTTAMDYWGEGTLVTVSSAKTTPPSVYPLAPGSAAQTNSMVTLGCLVKGYFPEPVTVTWNSGSLSSGVHTFPAVLQSDLYTLSSSVTVPSSTWPSETVTCNVAHPASSTKVDKKIVPRDCGCKPCICEPAEVEWVFIFPPKPKDVLTITLTPKVTCVVVDISKDDPEVQFSWFVDDVEVHTAQTQPREEQFNSTFRSVSELPIMHQDWLNGKEFKCRVNSAAFPAPIEKTISKTKGRPKAPQVYTIPPPKEQMAKDKVSLTCMITDFFPEDITVEWQWNGQPAENYKNTQPIMDTDGSYFVYSKLNVQKSNWEAGNTFTCSVLHEGLHNHHTEKSLSHSPGK light: not shown |
| – | – | 1.3 | 1.8 | H237-MB520/MRAL-k0 (antibody, copies: 2 + 2) heavy: QVQLQESGPGLVKPSETLSLTCAVSGHSISHDHAWSWVRQPPGEGLEWIGFISYSGITNYNPSLQGRVTISRDNSKNTLYLQMNSLRAEDTAVYYCARSLARTTAMDYWGEGTLVTVSSAKTTPPSVYPLAPGSAAQTNSMVTLGCLVKGYFPEPVTVTWNSGSLSSGVHTFPAVLQSDLYTLSSSVTVPSSTWPSETVTCNVAHPASSTKVDKKIVPRDCGCKPCICETYEVEWVFIFPPKPKDVLTITLTPKVTCVVVDISKDDPEVQFSWFVDDVEVHTAQTQPREEQFNSTFRSVSELPIMHQDWLNGKEFKCRVNSAAFPAPIEKTISKTKGRPKAPQVYTIPPPKEQMAKDKVSLTCMITDFFPEDITVEWQWNGQPAENYKNTQPIMDTDGSYFVYSKLNVQKSNWEAGNTFTCSVLHEGLHNHHTEKSLSHSPGK light: not shown |
| – | – | 1.6 | 38.6 | H237-MB516/MRAL-k0 (antibody, mouse IgG1, kappa, copies: 2 + 2) heavy: QVQLQESGPGLVKPSETLSLTCAVSGHSISHDHAWSWVRQPPGEGLEWIGFISYSGITNYNPSLQGRVTISRDNSKNTLYLQMNSLRAEDTAVYYCARSLARTTAMDYWGEGTLVTVSSAKTTPPSVYPLAPGSAAQTNSMVTLGCLVKGYFPEPVTVTWNSGSLSSGVHTFPAVLQSDLYTLSSSVTVPSSTWPSETVTCNVAHPASSTKVDKKIVPRDCGCKPCICQPNEVEMVFIFPPKPKDVLTITLTPKVTCVVVDISKDDPEVQFSWFVDDVEVHTAQTQPREEQFNSTFRSVSELPIMHQDWLNGKEFKCRVNSAAFPAPIEKTISKTKGRPKAPQVYTIPPPKEQMAKDKVSLTCMITDFFPEDITVEWQWNGQPAENYKNTQPIMDTDGSYFVYSKLNVQKSNWEAGNTFTCSVLHEGLHNHHTEKSLSHSPGK light: not shown |
